From publication PMC5752668 (Nature Communications, 2018)

B2: Rab32FL:GDP (full-length Rab32, residues 1-225, GDP-bound) (natural protein)
chain: MAGGGAGDPGLGAAAAPAPETREHLFKVLVIGELGVGKTSIIKRYVHQLFSQHYRATIGVDFALKVLNWDSRTLVRLQLWDIAGQERFGNMTRVYYKEAVGAFVVFDISRSSTFEAVLKWKSDLDSKVHLPNGSPIPAVLLANKCDQNKDSSQSPSQVDQFCKEHGFAGWFETSAKDNINIEEAARFLVEKILVNHQSFPNEENDVDKIKLDQETLRAENKSQCC
notes: also called Rab32:GDP; Rab32_(1-225); source: E. coli BL21(DE3)-RIL, purified (Ni-IMAC, TEV cleavage, second IMAC, SEC)
B4: GtgE_(FL,C45A) (full-length catalytically inactive GtgE, residues 1-228) (enzyme)
chain: MLRHIQNSLGSVYRSNTATPQGQIIHHRNFQSQFDTTGNTLYNNAWVCSLNVIKSRDGNNYSALEDITSDNQAFNNILEGIDIIECENLLKEMNVQKIPESSLFTNIKEALQAEVFNSTVEDDFESFISYELQNHGPLMLIRPSLGSECLHAECIVGYDSEVKKVLIYDSMNTSPEWQSNIDVYDKLTLAFNDKYKNEDCSICGLYYDGVYEPKPLHSSSWKDWCTIL
notes: source: E. coli BL21(DE3)-RIL, purified (Ni-IMAC, TEV cleavage, second IMAC)

How the values were obtained:
Rab32FL = target: T1, Rab32FL (Homo sapiens, UniProt Q13637); test: intrinsic GTP hydrolysis, ion-pairing RP-HPLC of nucleotide content; format: biochemical; settings: intrinsic GTPase, no GAP; single-exponential fit
T1 construct: gene RAB32; full length, E. coli, N-terminal His6-MBP tag cut by TEV, monomer by SEC
T1 sequence (Q13637 1-225): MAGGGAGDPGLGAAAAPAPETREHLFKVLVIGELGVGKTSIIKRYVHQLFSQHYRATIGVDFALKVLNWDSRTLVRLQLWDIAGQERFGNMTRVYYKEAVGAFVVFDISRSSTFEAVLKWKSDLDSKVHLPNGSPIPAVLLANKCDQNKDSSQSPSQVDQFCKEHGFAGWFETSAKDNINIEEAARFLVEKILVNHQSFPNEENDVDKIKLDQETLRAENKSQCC

[1] = target: T2, Rab32_1-225:GDP:GtgE1-228,C45A complex (Homo sapiens, UniProt Q13637); test: X-ray crystallography, […] Å; format: binding; settings: nucleotide site of Rab32; crystals from 0.05 M imidazole pH 8, 20% PEG 6000
T2 construct: gene RAB32; full-length Rab32 and full-length GtgE C45A, E. coli, His6-MBP tag cut by TEV, reductively lysine-methylated complex, 1:1 heterodimer; with Cysteine protease GtgE (Salmonella enterica serovar Typhimurium SL1344)
T2 sequence (Q6EAT3 entry or part of it C45A, one chain of several): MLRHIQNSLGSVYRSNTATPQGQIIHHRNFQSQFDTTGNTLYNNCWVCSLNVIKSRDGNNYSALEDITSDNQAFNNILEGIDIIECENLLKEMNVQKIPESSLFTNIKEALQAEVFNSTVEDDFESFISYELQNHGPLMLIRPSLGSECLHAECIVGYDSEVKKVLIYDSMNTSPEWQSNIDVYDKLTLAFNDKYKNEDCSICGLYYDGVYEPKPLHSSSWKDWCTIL

[2] = target: T3, GtgE_(21-214,C45A) (truncated inactive GtgE, lysine-methylated, for crystallization) (Salmonella enterica serovar Typhimurium …, UniProt Q6EAT3 21-214, C45A, surface exposed lysine residues reductively methylated); test: crystal structure; settings: both partners purified
T3 construct: source: E. coli BL21(DE3)-RIL, purified; complex reductively methylated
T3 sequence: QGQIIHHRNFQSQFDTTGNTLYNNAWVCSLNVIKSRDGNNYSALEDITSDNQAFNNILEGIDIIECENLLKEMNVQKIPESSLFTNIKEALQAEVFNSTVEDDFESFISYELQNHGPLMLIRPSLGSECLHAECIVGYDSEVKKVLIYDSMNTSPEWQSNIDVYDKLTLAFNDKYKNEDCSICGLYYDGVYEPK

[3] = target: B4; test: ITC; settings: both partners purified
[4] = target: B4; test: AUC; settings: both partners purified
[5] = target: B2; test: ITC; settings: both partners purified

For `Nc1nc2c(ncn2[C@@H]2O[C@H](COP(=O)(O)OP(=O)(O)OP(=O)(O)O)[C@@H](O)[C@H]2O)c(=O)[nH]1` [GTP], the k hydr (Rab32FL) was “Rab32 has an exceptionally slow intrinsic GTPase-activity with an hydrolysis constant determined”.

In the case of `Nc1nc2c(ncn2[C@@H]2O[C@H](COP(=O)(O)OP(=O)(O)O)[C@@H](O)[C@H]2O)c(=O)[nH]1` [GDP], the “X-ray crystallography, 2.9 Å” value [1] is reported as “The full-length Rab32:GDP:GtgEC45A structure was solved by molecular replacement”.

B1: Rab32_(18-201):GDP (truncated Rab32, lysine-methylated, for crystallization) (domain or fragment)
chain: APETREHLFKVLVIGELGVGKTSIIKRYVHQLFSQHYRATIGVDFALKVLNWDSRTLVRLQLWDIAGQERFGNMTRVYYKEAVGAFVVFDISRSSTFEAVLKWKSDLDSKVHLPNGSPIPAVLLANKCDQNKDSSQSPSQVDQFCKEHGFAGWFETSAKDNINIEEAARFLVEKILVNHQSFPN
notes: source: E. coli BL21(DE3)-RIL, purified; complex reductively methylated
B1: binds [2].

Work on B2 yielded a Kd [3] of 96 nM.

B3: Rab32FL-Atto488 (Rab32:GDP labelled at thiol groups with Atto488-Maleimide) (natural protein)
chain: MAGGGAGDPGLGAAAAPAPETREHLFKVLVIGELGVGKTSIIKRYVHQLFSQHYRATIGVDFALKVLNWDSRTLVRLQLWDIAGQERFGNMTRVYYKEAVGAFVVFDISRSSTFEAVLKWKSDLDSKVHLPNGSPIPAVLLANKCDQNKDSSQSPSQVDQFCKEHGFAGWFETSAKDNINIEEAARFLVEKILVNHQSFPNEENDVDKIKLDQETLRAENKSQCC
modifications: thiol groups covalently labeled with Atto488-Maleimide
notes: also called Rab32:GDP_(fluor.); fluorescently labeled Rab32FL:GDP; source: E. coli BL21(DE3)-RIL, purified, then labelled with Atto488-Maleimide
Molecule B3 has a Kd [4] of 118 nM.

B4 was tested, and the “stoichiometry N” value [5] was 1.
